Results as given in patent US20200255501A1 (VIB VZW, published 2020).
Substitutions are numbered along the chain they refer to.

B1: anti-Sap Nanobody688 (VHH)
VHH: QVQLVESGGGLVRAGGSLRLSCAASGSIFRINDMGWYRQAPGKQRELVAAITSGGSTNYADSVKGRFTISRDNAKNTVYLQMNSLKPEDTAVYYCNADFSTVRERRYDYWGQGTQVTVSS
B2: anti-Sap Nanobody683 (VHH)
VHH: QVQLVESGGGLVQAGGSLRLSCAASGSIFRINDMGWYRQAPGKQRELVAAITSGGSTNYADSVKGRFTISRDNAKKMVYLQMNSLKPEDTAVYYCHADFSTGWAPYDYWGQGTQVTVSS
B3: anti-Sap Nanobody704 (VHH)
VHH: QVQLVESGGGLVQPGGSLRLSCAASGFTFSNFAIAWVRQAPGKGLEWVSDINSGGTDTSYAAAVKGRFTISRDNAKNTLYLQMNNLKPEDTAVYYCAKSAQSYFHSTFDHRGQGTQVTVSS
B4: anti-Sap Nanobody707 (VHH)
VHH: B2 VHH with D33A, P41S, S56N, K76N, M77T, H96N, S100G, W103G, A104R
B5: anti-Sap Nanobody702 (VHH)
VHH: QVQLVESGGGLVQAGGSLRLSCAASGSIFRVNDMGWYRQAPGKQRELVAIIITGGSTNYADSVKGRFTISRDNAKNTVYLQMNSLRPEDTAVYYCNADFGTGPGRYDYWGQGTQVTVSS

biological target: T1, B. anthracis Sap S-Layer assembly domain (Sap^AD; residues 216-814), C-terminal His6 (Bacillus anthracis, UniProt P49051 216-814); experiment: ITC, Nb titrated into fresh monomeric Sapc, 30 °C

Binder	Kd
B1	120 nM
B2	35 nM

biological target: T1, B. anthracis Sap S-Layer assembly …; experiment: isothermal titration calorimetry, […]

Binder	Kd
B3	183 nM
B4	103 nM
B5	72.5 nM
B2	35.8 nM
